Laboratory results: the supplement of paper PMC7877785
± gives the uncertainty stated by the source.

Test: self-splicing fitness, log relative to wild type (ln ratio); higher = more splicing; Tetrahymena group I intron in knt gene, E. coli kanamycin selection, DiMSum; sequences stand for … in CUCUCU…GGAGGGAAAAGUUAUCAGGCAUGCACCUGGUAGCUAGUCUUUAAACCAAUAGAUUGCAUCGGUUUAAAAGGCAAGACCGUCAAAUUGCGGGAAAGGGGUCAACAGCCGUUCAGUACCAAGUCUCAGGGGAAACUUUGAGAUGGCCUUGCAAAGGGUAUGGUAAUAAGCUGACGGACAUGGUCCUAACCACGCAGCCAAGUCCUAAGUCAACAGAUCUUCUGUUGAUAUGGAUGCAGUUCACAGACUAAAUGUCGGUCGGGGAAGAUGUAUUCUUCUCAUAAGAUAUAGUCGGACCUCUCCUUAAUGGGAGCUAGCGGAUGAAGUGAUGCAACACUGGAGCCGCUGGGAACUAAUUUGUAUGCGAAAGUAUAUUGAUUAGUUUUGGAGUACUCGUGGUCG
Procedure, shortened: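 Colonies from six replicate transformations of E. coli BL21(DE3) were pooled and amplicon-sequenced on an Illumina HiSeq 2500. The library placed an intron with all eight P1ex-region nucleotides randomised inside the knt kanamycin-resistance gene on pET-22b(+), and cells grew overnight at 37°C or 30°C on LB agar with or without 25 μg/mL kanamycin (plus 100 μg/mL carbenicillin, 50 μM IPTG, 0.2% rhamnose). Fitness is the DiMSum error-weighted combination of wild-type-normalised replicate fold changes, kanamycin versus none.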

Sequence | self-splicing fitness (ln) (30 °C) | self-splicing fitness (ln) (37 °C)
CUAUAGCAAUAUUACGAAAG | -1.84 ± 0.1 | -1.01 ± 0.12
ACUGAGCAAUAUUACGUUAC | -3.95 ± 0.3 | -2.9 ± 0.38
GCGAAGCAAUAUUACGCAUU | -2.56 ± 0.17 | -2.15 ± 0.19
GUUCAGCAAUAUUACGUCAC | -1.78 ± 0.17 | -1.27 ± 0.17
UAUCAGCAAUAUUACGGCGC | -2.69 ± 0.18 | -1.12 ± 0.21
AGAUAGCAAUAUUACGCUCC | – | 0.0911 ± 0.49
AGGUAGCAAUAUUACGAUGC | -1.62 ± 0.017 | -0.828 ± 0.035
UAUCAGCAAUAUUACGGCGG | -0.918 ± 0.086 | 0.373 ± 0.093
AUGCAGCAAUAUUACGCCUA | -0.128 ± 0.1 | -0.513 ± 0.12
ACUCAGCAAUAUUACGGGUU | -3.64 ± 0.17 | -2.37 ± 0.19
GCAAAGCAAUAUUACGGUCA | -1.12 ± 0.083 | -0.197 ± 0.087
GACAAGCAAUAUUACGUCGG | -2.91 ± 0.14 | -2.43 ± 0.18
CCGAAGCAAUAUUACGCCUU | -3.35 ± 0.36 | -1.21 ± 0.3
AGCGAGCAAUAUUACGGAUC | -3.42 ± 0.33 | -1.44 ± 0.49
CAACAGCAAUAUUACGCAGU | -2.78 ± 0.19 | -3.62 ± 0.3
CCCGAGCAAUAUUACGUUUG | -4.07 ± 0.23 | -2.07 ± 0.14
GACCAGCAAUAUUACGCCGA | -0.69 ± 0.14 | -0.272 ± 0.15
UGGCAGCAAUAUUACGUACU | 0.384 ± 0.091 | 0.181 ± 0.12
AGGAAGCAAUAUUACGGCGC | -0.231 ± 0.11 | -0.104 ± 0.15
CCCCAGCAAUAUUACGCCUU | -3 ± 0.22 | -2.4 ± 0.37
AAGCAGCAAUAUUACGACCU | 0.301 ± 0.08 | 0.149 ± 0.11
ACUAAGCAAUAUUACGGUAU | -3.24 ± 0.17 | -1.73 ± 0.13
AUGCAGCAAUAUUACGGCUC | -0.408 ± 0.1 | -0.0582 ± 0.13
UAACAGCAAUAUUACGGUAU | -3.01 ± 0.11 | -2.06 ± 0.17
ACAUAGCAAUAUUACGCCGA | -1.38 ± 0.19 | -0.864 ± 0.18

Sequence | self-splicing fitness (ln) (30 °C) | self-splicing fitness (ln) (37 °C)
CAGAAGCAAUAUUACGACUC | -0.803 ± 0.069 | -0.342 ± 0.095
CAUAAGCAAUAUUACGGCGA | -1.96 ± 0.18 | -0.178 ± 0.15
UCGAAGCAAUAUUACGGAUU | -3.96 ± 0.32 | -2.56 ± 0.25
AUGAAGCAAUAUUACGGGGC | -4.78 ± 0.26 | -2.48 ± 0.2
GCAGAGCAAUAUUACGAAGA | -1.88 ± 0.36 | –
CUGGAGCAAUAUUACGUCCU | -3.17 ± 0.16 | -2.56 ± 0.22
ACGAAGCAAUAUUACGGCGU | -2.47 ± 0.09 | -1.74 ± 0.11
ACUUAGCAAUAUUACGAGUU | -2.42 ± 0.12 | -0.552 ± 0.14
CUUAAGCAAUAUUACGUCGU | -4.59 ± 0.46 | -2.22 ± 0.29
AAAUAGCAAUAUUACGUACU | 0.159 ± 0.063 | 0.295 ± 0.091
GAGAAGCAAUAUUACGAAAC | -2.29 ± 0.36 | -1.71 ± 0.48
GGACAGCAAUAUUACGGGGA | -2.72 ± 0.16 | -3.05 ± 0.26
GAAGAGCAAUAUUACGUAUA | -2 ± 0.28 | -3.5 ± 0.34
CGGCAGCAAUAUUACGGUCU | -0.384 ± 0.066 | 0.364 ± 0.087
UACCAGCAAUAUUACGACCU | -2.1 ± 0.17 | -1.57 ± 0.17
CGAGAGCAAUAUUACGGUCA | -3.17 ± 0.27 | -2.29 ± 0.3
GGUAAGCAAUAUUACGGCAA | -0.143 ± 0.12 | -0.18 ± 0.15
UCUAAGCAAUAUUACGGCCG | -1.36 ± 0.34 | 0.444 ± 0.3
UGAAAGCAAUAUUACGGUGC | -2.02 ± 0.38 | -2.61 ± 0.36
AACCAGCAAUAUUACGGGUA | -0.823 ± 0.045 | -0.376 ± 0.055
UGUCAGCAAUAUUACGUCAC | -3.9 ± 0.39 | -3.29 ± 0.37
UAACAGCAAUAUUACGUUCA | -0.481 ± 0.049 | 0.0141 ± 0.07
AGCUAGCAAUAUUACGGAUA | -2.55 ± 0.17 | -1.87 ± 0.14
GUUAAGCAAUAUUACGGUGG | -3.52 ± 0.17 | -1.78 ± 0.15
CAAUAGCAAUAUUACGCGCG | -0.577 ± 0.094 | -0.206 ± 0.1

Sequence | self-splicing fitness (ln) (30 °C) | self-splicing fitness (ln) (37 °C)
GUACAGCAAUAUUACGACUU | -0.754 ± 0.059 | -0.179 ± 0.073
CCAUAGCAAUAUUACGCGGG | -3.99 ± 0.21 | -2.87 ± 0.24
ACUUAGCAAUAUUACGGUAC | -3.36 ± 0.21 | -3.57 ± 0.42
GAGUAGCAAUAUUACGGAUC | -0.928 ± 0.092 | -0.167 ± 0.12
GUCGAGCAAUAUUACGUGAC | -4.99 ± 0.45 | -2.57 ± 0.35
CUACAGCAAUAUUACGGGAU | -2.74 ± 0.15 | -2.99 ± 0.27
UGUCAGCAAUAUUACGUUAC | -3.4 ± 0.27 | -2.77 ± 0.43
CCUCAGCAAUAUUACGAAAG | -1.51 ± 0.069 | -0.45 ± 0.087
AAGCAGCAAUAUUACGAUCU | -0.0506 ± 0.075 | 0.801 ± 0.09
AUGUAGCAAUAUUACGAGCG | -1.23 ± 0.11 | -1.8 ± 0.14
GAAAAGCAAUAUUACGGCCG | -0.796 ± 0.087 | -0.537 ± 0.12
UUAUAGCAAUAUUACGAUAU | -1.97 ± 0.13 | -0.578 ± 0.17
CCAGAGCAAUAUUACGACUC | -1.93 ± 0.32 | -1.12 ± 0.43
AACAAGCAAUAUUACGCCGA | -1.45 ± 0.12 | -1.27 ± 0.12
UAGAAGCAAUAUUACGAUCA | -0.731 ± 0.064 | 0.138 ± 0.086
AAUGAGCAAUAUUACGUGUC | -3.39 ± 0.25 | -3.65 ± 0.39
GGAAAGCAAUAUUACGCUGU | -1.07 ± 0.11 | -0.375 ± 0.17
UUUAAGCAAUAUUACGAGCG | -0.94 ± 0.14 | -0.4 ± 0.17
CUCGAGCAAUAUUACGGCAG | -1.71 ± 0.13 | -1.03 ± 0.15
GCCCAGCAAUAUUACGCCUC | -0.831 ± 0.075 | 0.0191 ± 0.11
AUUGAGCAAUAUUACGGGCA | -2.81 ± 0.23 | -2.3 ± 0.29
AGGGAGCAAUAUUACGCGCA | -1.71 ± 0.4 | -2.11 ± 0.34
CGUCAGCAAUAUUACGAUGA | -0.998 ± 0.11 | 0.0314 ± 0.11
UAAGAGCAAUAUUACGGUGC | -3.43 ± 0.28 | –
AAAAAGCAAUAUUACGCAAG | -1.78 ± 0.097 | -0.583 ± 0.1
